The target in the test is T1, wild-type soluble E2 (sE2), HCV isolate H77C, residues 384-661 (UniProt P27958 384-661).
T1 chain: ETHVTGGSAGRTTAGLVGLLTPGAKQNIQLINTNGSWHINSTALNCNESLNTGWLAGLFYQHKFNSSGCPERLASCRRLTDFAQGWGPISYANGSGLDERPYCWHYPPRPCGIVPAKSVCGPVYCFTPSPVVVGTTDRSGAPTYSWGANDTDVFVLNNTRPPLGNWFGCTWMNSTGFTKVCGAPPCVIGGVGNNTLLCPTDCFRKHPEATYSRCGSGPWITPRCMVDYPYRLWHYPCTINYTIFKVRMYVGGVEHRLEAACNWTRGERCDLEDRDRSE
As to the kind of experiment: BLI. (In general: BLI is a label-free optical method that tracks binding on a fibre tip over time.)

B1: CD81 large extracellular loop (LEL) (receptor)
chain: FVNKDQIAKDVKQFYDQALQQAVVDDDANNAKAVVKTFHETLDCCGSSTLTALTTSVLKNNLCPSGSNIISNLFKEDCHQKIDDLFSGK
As for B1, the affinity, expressed as Kd, was 22 nM.

For the origin of these results see US20220054630A1 (published 2022).
